# Test results from publication PMC4751602.
# T1: hnRNP-Q1 RGG box peptide (UniProt O60506-3 406-561)
# T1 sequence: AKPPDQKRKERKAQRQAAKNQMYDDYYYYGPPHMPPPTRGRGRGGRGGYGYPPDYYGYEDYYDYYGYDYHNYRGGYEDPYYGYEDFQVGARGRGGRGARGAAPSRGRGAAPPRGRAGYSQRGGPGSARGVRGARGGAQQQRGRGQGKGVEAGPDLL
# T2: GST-hnRNP-Q1 (UniProt O60506-3 1-562)
# T2 sequence: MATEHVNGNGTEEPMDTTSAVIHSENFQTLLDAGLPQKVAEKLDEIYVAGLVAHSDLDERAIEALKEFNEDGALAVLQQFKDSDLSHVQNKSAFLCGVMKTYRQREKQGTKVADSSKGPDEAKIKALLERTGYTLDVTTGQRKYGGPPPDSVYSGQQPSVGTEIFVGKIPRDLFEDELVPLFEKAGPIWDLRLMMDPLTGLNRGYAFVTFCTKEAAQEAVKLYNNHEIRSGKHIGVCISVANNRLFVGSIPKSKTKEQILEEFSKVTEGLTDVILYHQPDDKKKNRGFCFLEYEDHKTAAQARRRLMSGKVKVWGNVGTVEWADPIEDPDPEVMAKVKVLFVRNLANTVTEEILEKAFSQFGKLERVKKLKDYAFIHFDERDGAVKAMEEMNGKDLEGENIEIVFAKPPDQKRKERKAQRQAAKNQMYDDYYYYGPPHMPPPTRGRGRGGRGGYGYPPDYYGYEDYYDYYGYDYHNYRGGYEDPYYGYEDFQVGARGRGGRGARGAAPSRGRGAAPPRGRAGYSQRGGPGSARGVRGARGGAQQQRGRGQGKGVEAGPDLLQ
# Legend:
# hnRNP-Q1 RGG box peptide = biological target: T1, hnRNP-Q1 RGG box peptide; test: fluorescence spectroscopy
# GST-hnRNP-Q1 = biological target: T2, GST-hnRNP-Q1; test: biotin pull-down, GST immunoblot
binder,measurement,setting,value
"GGGAGGGAGGGAGGGAGAGC (structured_RNA, 2-aminopurine replaces A4) [2AP Gap-43 5'GQ RNA]",Kd,hnRNP-Q1 RGG box peptide,131 ± 14 nM
GGGAGGGAGGGAGGGA (structured_RNA) [Gap-43 5'GQ (5' biotin)],binding result,GST-hnRNP-Q1,binds
